Laboratory results taken from patent publication US20140213531A1 (POLYPHOR, published 2014).
Blank lines part the entries; values can stand above or below the binder they belong to.

Columns and labels:
Test in all cases: cell-based or functional assay
[1] = molecular target: Urokinase from human urine (human, UniProt P00749 21-431, limits assumed)
[2] = molecular target: T1, Chymase, from human skin (human, UniProt P23946 22-247)
T1 sequence (looked up): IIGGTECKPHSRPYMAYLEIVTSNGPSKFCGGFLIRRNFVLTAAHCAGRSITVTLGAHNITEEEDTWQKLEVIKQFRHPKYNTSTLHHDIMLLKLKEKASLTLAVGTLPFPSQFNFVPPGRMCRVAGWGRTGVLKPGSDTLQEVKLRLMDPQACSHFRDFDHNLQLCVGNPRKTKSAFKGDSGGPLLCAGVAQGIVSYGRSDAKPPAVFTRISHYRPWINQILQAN

[3] = molecular target: Coagulation Factor Xa, from human plasma (human, UniProt P00742 41-488, limits assumed)
[4] = molecular target: Thrombin, from Human Plasma, high activity (human, UniProt P00734 328-622)
[5] = molecular target: T2, CathepsinG, from human neutrophils (human, UniProt P08311 21-244)
T2 sequence (looked up): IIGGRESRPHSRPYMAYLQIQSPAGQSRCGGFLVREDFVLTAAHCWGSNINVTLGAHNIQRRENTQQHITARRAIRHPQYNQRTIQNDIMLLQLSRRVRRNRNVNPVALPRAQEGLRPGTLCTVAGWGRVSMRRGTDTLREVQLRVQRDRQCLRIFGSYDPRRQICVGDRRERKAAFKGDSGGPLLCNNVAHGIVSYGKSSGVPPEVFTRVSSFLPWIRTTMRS

[6] = molecular target: Trypsin, Iodination grade, from human pancreas (human, UniProt P07477 24-247)
[7] = molecular target: T3, Elastase from human neutrophils (human, UniProt P08246 30-247, limits assumed)
T3 sequence (looked up): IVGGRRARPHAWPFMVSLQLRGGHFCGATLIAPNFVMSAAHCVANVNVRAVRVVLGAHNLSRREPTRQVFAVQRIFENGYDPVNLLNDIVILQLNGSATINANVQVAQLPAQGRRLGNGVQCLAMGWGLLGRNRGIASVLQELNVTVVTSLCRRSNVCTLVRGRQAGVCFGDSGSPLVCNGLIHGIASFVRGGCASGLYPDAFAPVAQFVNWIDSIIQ

[8] = molecular target: Chymotrypsin, from human pancreas (human, UniProt P17538 19-263)
[9] = molecular target: Tryptase, from human lung (human, UniProt Q15661 31-275, limits assumed)
Sequence of Tryptase, from human lung (Q15661 31-275 limits assumed): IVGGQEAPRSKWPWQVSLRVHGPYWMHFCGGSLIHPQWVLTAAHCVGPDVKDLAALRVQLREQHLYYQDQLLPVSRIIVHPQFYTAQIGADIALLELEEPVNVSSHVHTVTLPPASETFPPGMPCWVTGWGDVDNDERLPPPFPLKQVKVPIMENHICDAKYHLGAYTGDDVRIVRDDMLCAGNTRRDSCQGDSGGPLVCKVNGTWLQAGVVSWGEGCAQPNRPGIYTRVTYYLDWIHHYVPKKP

Sequence of Chymotrypsin, from human pancreas (P17538 19-263): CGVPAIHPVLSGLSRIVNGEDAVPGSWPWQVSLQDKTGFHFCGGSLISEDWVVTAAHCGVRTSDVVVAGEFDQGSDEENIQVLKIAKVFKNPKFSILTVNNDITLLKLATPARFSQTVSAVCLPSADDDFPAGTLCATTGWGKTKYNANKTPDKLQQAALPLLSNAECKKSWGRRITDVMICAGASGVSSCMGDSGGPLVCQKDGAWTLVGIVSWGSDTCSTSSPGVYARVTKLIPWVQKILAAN
Sequence of Coagulation Factor Xa, from human plasma (P00742 41-488 limits assumed): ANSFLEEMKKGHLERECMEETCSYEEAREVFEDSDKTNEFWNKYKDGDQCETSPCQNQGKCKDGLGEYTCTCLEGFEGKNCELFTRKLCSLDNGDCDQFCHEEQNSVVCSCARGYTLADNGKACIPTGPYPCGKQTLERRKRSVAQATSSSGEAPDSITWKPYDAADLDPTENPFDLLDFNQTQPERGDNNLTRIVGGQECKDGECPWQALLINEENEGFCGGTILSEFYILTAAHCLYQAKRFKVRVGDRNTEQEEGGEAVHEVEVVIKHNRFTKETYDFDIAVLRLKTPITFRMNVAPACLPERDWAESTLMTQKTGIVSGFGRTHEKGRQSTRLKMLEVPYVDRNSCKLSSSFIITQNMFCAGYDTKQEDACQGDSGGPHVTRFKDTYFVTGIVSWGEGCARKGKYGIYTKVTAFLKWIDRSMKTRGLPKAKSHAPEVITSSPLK

- % inhibition at 100 µM [1]: 9%
- % inhibition at 100 µM [2]: 60%
- % inhibition at 100 µM [3]: 11%
- % inhibition at 100 µM [4]: 0%
- IC50 [5]: 38 nmol
- % inhibition at 100 µM [6]: 90%
- IC50 [7]: > 100000 nmol
- % inhibition at 100 µM [8]: 4%
B1: Example 23 (peptide)
peptide: FCTXSDPPICY
HELM: PEPTIDE1{F.C.T.[Nle].S.D.P.P.I.C.Y.[dP].P}$PEPTIDE1,PEPTIDE1,2:R3-10:R3|PEPTIDE1,PEPTIDE1,1:R1-13:R2$$$V2.0
SMILES: CCCC[C@@H]1NC(=O)[C@H]([C@@H](C)O)NC(=O)[C@@H]2CSSC[C@H](NC(=O)[C@H]([C@@H](C)CC)NC(=O)[C@@H]3CCCN3C(=O)[C@@H]3CCCN3C(=O)[C@H](CC(=O)O)NC(=O)[C@H](CO)NC1=O)C(=O)N[C@@H](Cc1ccc(O)cc1)C(=O)N1CCC[C@@H]1C(=O)N1CCC[C@H]1C(=O)N[C@@H](Cc1ccccc1)C(=O)N2

- % inhibition at 100 µM [1]: 6.2%
- % inhibition at 100 µM [2]: 0%
- % inhibition at 100 µM [4]: 7.9%
- % inhibition at 100 µM [9]: 30.5%
- IC50 [5]: 82 nmol
- % inhibition at 100 µM [6]: 96%
- IC50 [7]: > 10000 nmol
- % inhibition at 100 µM [8]: 0%
B2: Example 49 (peptide)
peptide: FCTKSDPPICS
HELM: PEPTIDE1{F.C.T.K.S.D.P.P.I.C.S.[dA].P}$PEPTIDE1,PEPTIDE1,2:R3-10:R3|PEPTIDE1,PEPTIDE1,1:R1-13:R2$$$V2.0
SMILES: CC[C@H](C)[C@@H]1NC(=O)[C@@H]2CCCN2C(=O)[C@@H]2CCCN2C(=O)[C@H](CC(=O)O)NC(=O)[C@H](CO)NC(=O)[C@H](CCCCN)NC(=O)[C@H]([C@@H](C)O)NC(=O)[C@@H]2CSSC[C@H](NC1=O)C(=O)N[C@@H](CO)C(=O)N[C@H](C)C(=O)N1CCC[C@H]1C(=O)N[C@@H](Cc1ccccc1)C(=O)N2

- % inhibition at 100 µM [1]: 4%
- % inhibition at 100 µM [2]: 26.9%
- % inhibition at 100 µM [3]: 32%
- % inhibition at 100 µM [4]: 11%
- IC50 [5]: 41 nmol
- % inhibition at 100 µM [6]: 94%
- IC50 [7]: > 100000 nmol
- % inhibition at 100 µM [8]: 0%
B3: Example 57 (peptide)
peptide: ICTKSDPPXCR
HELM: PEPTIDE1{I.C.T.K.S.D.P.P.[Nle].C.R.[dP].P}$PEPTIDE1,PEPTIDE1,2:R3-10:R3|PEPTIDE1,PEPTIDE1,1:R1-13:R2$$$V2.0
SMILES: CCCC[C@@H]1NC(=O)[C@@H]2CCCN2C(=O)[C@@H]2CCCN2C(=O)[C@H](CC(=O)O)NC(=O)[C@H](CO)NC(=O)[C@H](CCCCN)NC(=O)[C@H]([C@@H](C)O)NC(=O)[C@@H]2CSSC[C@H](NC1=O)C(=O)N[C@@H](CCCNC(=N)N)C(=O)N1CCC[C@@H]1C(=O)N1CCC[C@H]1C(=O)N[C@@H]([C@@H](C)CC)C(=O)N2

- % inhibition at 100 µM [1]: 9%
- % inhibition at 100 µM [2]: 0%
- % inhibition at 100 µM [3]: 3%
- % inhibition at 100 µM [4]: 2%
- IC50 [5]: 39 nmol
- % inhibition at 100 µM [6]: 98%
- IC50 [7]: 49900 nmol
- % inhibition at 100 µM [8]: 49%
B4: Example 30 (peptide)
peptide: XCTKSDPPICY
HELM: PEPTIDE1{[O=C([C@H](CCc1ccccc1)N[*:1])[*:2]].C.T.K.S.D.P.P.I.C.Y.[dP].P}$PEPTIDE1,PEPTIDE1,2:R3-10:R3|PEPTIDE1,PEPTIDE1,1:R1-13:R2$$$V2.0
SMILES: CC[C@H](C)[C@@H]1NC(=O)[C@@H]2CCCN2C(=O)[C@@H]2CCCN2C(=O)[C@H](CC(=O)O)NC(=O)[C@H](CO)NC(=O)[C@H](CCCCN)NC(=O)[C@H]([C@@H](C)O)NC(=O)[C@@H]2CSSC[C@H](NC1=O)C(=O)N[C@@H](Cc1ccc(O)cc1)C(=O)N1CCC[C@@H]1C(=O)N1CCC[C@H]1C(=O)N[C@@H](CCc1ccccc1)C(=O)N2

- % inhibition at 100 µM [1]: 4%
- % inhibition at 100 µM [2]: 26.9%
- % inhibition at 100 µM [3]: 32%
- % inhibition at 100 µM [4]: 11%
- IC50 [5]: 41 nmol
- % inhibition at 100 µM [6]: 94%
- IC50 [7]: > 100000 nmol
- % inhibition at 100 µM [8]: 0%
B5: Example 19 (peptide)
peptide: ICTKSDPPXCR
HELM: PEPTIDE1{I.C.T.K.S.D.P.P.[Nle].C.R.[dP].P}$PEPTIDE1,PEPTIDE1,2:R3-10:R3|PEPTIDE1,PEPTIDE1,1:R1-13:R2$$$V2.0
SMILES: CCCC[C@@H]1NC(=O)[C@@H]2CCCN2C(=O)[C@@H]2CCCN2C(=O)[C@H](CC(=O)O)NC(=O)[C@H](CO)NC(=O)[C@H](CCCCN)NC(=O)[C@H]([C@@H](C)O)NC(=O)[C@@H]2CSSC[C@H](NC1=O)C(=O)N[C@@H](CCCNC(=N)N)C(=O)N1CCC[C@@H]1C(=O)N1CCC[C@H]1C(=O)N[C@@H]([C@@H](C)CC)C(=O)N2

- % inhibition at 100 µM [3]: 8.7%
- % inhibition at 100 µM [4]: 13.1%
- % inhibition at 100 µM [5]: 61.3%
- IC50 [7]: 28 nmol
B6: Example 81 (peptide)
peptide: XCTASXPPQCY
HELM: PEPTIDE1{[Nle].C.T.A.S.[CCCCCCCC[C@H](N[*:1])C(=O)[*:2]].P.P.Q.C.Y.[dP].P}$PEPTIDE1,PEPTIDE1,2:R3-10:R3|PEPTIDE1,PEPTIDE1,1:R1-13:R2$$$V2.0
SMILES: CCCCCCCC[C@@H]1NC(=O)[C@H](CO)NC(=O)[C@H](C)NC(=O)[C@H]([C@@H](C)O)NC(=O)[C@@H]2CSSC[C@H](NC(=O)[C@H](CCC(N)=O)NC(=O)[C@@H]3CCCN3C(=O)[C@@H]3CCCN3C1=O)C(=O)N[C@@H](Cc1ccc(O)cc1)C(=O)N1CCC[C@@H]1C(=O)N1CCC[C@H]1C(=O)N[C@@H](CCCC)C(=O)N2

- % inhibition at 100 µM [2]: 32.5%
- % inhibition at 100 µM [4]: 0%
- % inhibition at 100 µM [9]: 88.3%
- IC50 [5]: 47 nmol
- % inhibition at 100 µM [6]: 84%
- IC50 [7]: > 100000 nmol
- % inhibition at 100 µM [8]: 25%
B7: Example 18 (peptide)
peptide: ICTKSDPPYCR
HELM: PEPTIDE1{I.C.T.K.S.D.P.P.Y.C.R.[dP].P}$PEPTIDE1,PEPTIDE1,2:R3-10:R3|PEPTIDE1,PEPTIDE1,1:R1-13:R2$$$V2.0
SMILES: CC[C@H](C)[C@@H]1NC(=O)[C@@H]2CCCN2C(=O)[C@H]2CCCN2C(=O)[C@H](CCCNC(=N)N)NC(=O)[C@@H]2CSSC[C@H](NC1=O)C(=O)N[C@@H]([C@@H](C)O)C(=O)N[C@@H](CCCCN)C(=O)N[C@@H](CO)C(=O)N[C@@H](CC(=O)O)C(=O)N1CCC[C@H]1C(=O)N1CCC[C@H]1C(=O)N[C@@H](Cc1ccc(O)cc1)C(=O)N2

- % inhibition at 100 µM [1]: 6.7%
- % inhibition at 100 µM [2]: 44.1%
- % inhibition at 100 µM [3]: 25%
- % inhibition at 100 µM [4]: 28%
- IC50 [5]: 48 nmol
- % inhibition at 100 µM [6]: 97%
- IC50 [7]: > 100000 nmol
- % inhibition at 100 µM [8]: 0%
B8: Example 20 (peptide)
peptide: ICTKSDPPXCR
HELM: PEPTIDE1{I.C.T.K.S.D.P.P.[Cha].C.R.[dP].P}$PEPTIDE1,PEPTIDE1,2:R3-10:R3|PEPTIDE1,PEPTIDE1,1:R1-13:R2$$$V2.0
SMILES: CC[C@H](C)[C@@H]1NC(=O)[C@@H]2CCCN2C(=O)[C@H]2CCCN2C(=O)[C@H](CCCNC(=N)N)NC(=O)[C@@H]2CSSC[C@H](NC1=O)C(=O)N[C@@H]([C@@H](C)O)C(=O)N[C@@H](CCCCN)C(=O)N[C@@H](CO)C(=O)N[C@@H](CC(=O)O)C(=O)N1CCC[C@H]1C(=O)N1CCC[C@H]1C(=O)N[C@@H](CC1CCCCC1)C(=O)N2

- % inhibition at 100 µM [2]: 32.5%
- % inhibition at 100 µM [4]: 0%
- % inhibition at 100 µM [9]: 88.3%
- IC50 [5]: 47 nmol
- % inhibition at 100 µM [6]: 84%
- IC50 [7]: > 100000 nmol
- % inhibition at 100 µM [8]: 25%
B9: Example 56 (peptide)
peptide: ICTKSDPPYCR
HELM: PEPTIDE1{I.C.T.K.S.D.P.P.Y.C.R.[dP].P}$PEPTIDE1,PEPTIDE1,2:R3-10:R3|PEPTIDE1,PEPTIDE1,1:R1-13:R2$$$V2.0
SMILES: CC[C@H](C)[C@@H]1NC(=O)[C@@H]2CCCN2C(=O)[C@H]2CCCN2C(=O)[C@H](CCCNC(=N)N)NC(=O)[C@@H]2CSSC[C@H](NC1=O)C(=O)N[C@@H]([C@@H](C)O)C(=O)N[C@@H](CCCCN)C(=O)N[C@@H](CO)C(=O)N[C@@H](CC(=O)O)C(=O)N1CCC[C@H]1C(=O)N1CCC[C@H]1C(=O)N[C@@H](Cc1ccc(O)cc1)C(=O)N2
